# Experimental data published in the supplement of paper PMC11316812.
# ± gives the standard deviation of the averaged measurements.
# Key:
# hTERT-HMEC = test: percentage of EdU-negative (G0-arrested) nuclei per well, 72 h; higher = more G0 arrest; conditions: reference: sequence is the full UniProt precursor, the tested protein was the secreted form or ectodomain
# MCF7 = test: as above; conditions: reference: sequence is the full UniProt precursor, the tested protein was the secreted form or ectodomain
# [1] = protein concentration 0.0225 µM
# [2] = protein concentration 0.01925 µM
# [3] = protein concentration 0.1925 µM
# [4] = protein concentration 0.00825 µM
# [5] = protein concentration 0.0825 µM
# [6] = protein concentration 0.01025 µM
# [7] = protein concentration 0.1025 µM
# 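Also: secreted proteins added to cultured cells, EdU pulse at the end, nuclei found by Hoechst imaging, EdU status from nuclear versus surrounding ring intensity ratio, PBS as neutral control.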
Sequence,percentage of EdU-negative (hTERT-HMEC; [1]) [%],percentage of EdU-negative (hTERT-HMEC; protein concentration 0.225 µM) [%],percentage of EdU-negative (MCF7; [1]) [%],percentage of EdU-negative (MCF7; protein concentration 0.225 µM) [%],other results
MGIELLCLFFLFLGRNDHVQGGCALGGAETCEDCLLIGPQCAWCAQENFTHPSGVGERCDTPANLLAKGCQLNFIENPVSQVEILKNKPLSVGRQKNSSDIVQIAPQSLILKLRPGGAQTLQVHVRQTEDYPVDLYYLMDLSASMDDDLNTIKELGSRLSKEMSKLTSNFRLGFGSFVEKPVSPFVKTTPEEIANPCSSIPYFCLPTFGFKHILPLTNDAERFNEIVKNQKISANIDTPEGGFDAIMQAAVCKEKIGWRNDSLHLLVFVSDADSHFGMDSKLAGIVIPNDGLCHLDSKNEYSMSTVLEYPTIGQLIDKLVQNNVLLIFAVTQEQVHLYENYAKLIPGATVGLLQKDSGNILQLIISAYEELRSEVELEVLGDTEGLNLSFTAICNNGTLFQHQKKCSHMKVGDTASFSVTVNIPHCERRSRHIIIKPVGLGDALELLVSPECNCDCQKEVEVNSSKCHHGNGSFQCGVCACHPGHMGPRCECGEDMLSTDSCKEAPDHPSCSGRGDCYCGQCICHLSPYGNIYGPYCQCDNFSCVRHKGLLCGGNGDCDCGECVCRSGWTGEYCNCTTSTDSCVSEDGVLCSGRGDCVCGKCVCTNPGASGPTCERCPTCGDPCNSKRSCIECHLSAAGQAREECVDKCKLAGATISEEEDFSKDGSVSCSLQGENECLITFLITTDNEGKTIIHSINEKDCPKPPNIPMIMLGVSLAILLIGVVLLCIWKLLVSFHDRKEVAKFEAERSKAKWQTGTNPLYRGSTSTFKNVTYKHREKQKVDLSTDC,5.434 ± 0.051,6.34 ± 1.4,23.6 ± 0.48,28 ± 1.7,
MLLLLTLALLGGPTWAGKMYGPGGGKYFSTTEDYDHEITGLRVSVGLLLVKSVQVKLGDSWDVKLGALGGNTQEVTLQPGEYITKVFVAFQAFLRGMVMYTSKDRYFYFGKLDGQISSAYPSQEGQVLVGIYGQYQLLGIKSIGFEWNYPLEEPTTEPPVNLTYSANSPVGR [Q96DA0],5.62 ± 0.12,9.31 ± 0.28,25.49 ± 0.17,24.3 ± 2.2,
MARFGLPALLCTLAVLSAALLAAELKSKSCSEVRRLYVSKGFNKNDAPLHEINGDHLKICPQGSTCCSQEMEEKYSLQSKDDFKSVVSEQCNHLQAVFASRYKKFDEFFKELLENAEKSLNDMFVKTYGHLYMQNSELFKDLFVELKRYYVVGNVNLEEMLNDFWARLLERMFRLVNSQYHFTDEYLECVSKYTEQLKPFGDVPRKLKLQVTRAFVAARTFAQGLAVAGDVVSKVSVVNPTAQCTHALLKMIYCSHCRGLVTVKPCYNYCSNIMRGCLANQGDLDFEWNNFIDAMLMVAERLEGPFNIESVMDPIDVKISDAIMNMQDNSVQVSQKVFQGCGPPKPLPAGRISRSISESAFSARFRPHHPEERPTTAAGTSLDRLVTDVKEKLKQAKKFWSSLPSNVCNDERMAAGNGNEDDCWNGKGKSRYLFAVTGNGLANQGNNPEVQVDTSKPDILILRQIMALRVMTSKMKNAYNGNDVDFFDISDESSGEGSGSGCEYQQCPSEFDYNATDHAGKSANEKADSAGVRPGAQAYLLTVFCILFLVMQREWR,,,,,percentage of EdU-negative (hTERT-HMEC; [2]): 4.9 ± 0.24%; percentage of EdU-negative (hTERT-HMEC; [3]): 4.77 ± 0.82%; percentage of EdU-negative (MCF7; [2]): 26.5 ± 0.51%; percentage of EdU-negative (MCF7; [3]): 29.9 ± 0.64%
MDLSRPRWSLWRRVFLMASLLACGICQASGQIFITQTLGIKGYRTVVALDKVPEDVQEYSWYWGANDSAGNMIISHKPPSAQQPGPMYTGRERVNREGSLLIRPTALNDTGNYTVRVVAGNETQRATGWLEVLELGSNLGISVNASSLVENMDSVAADCLTNVTNITWYVNDVPTSSSDRMTISPDGKTLVILRVSRYDRTIQCMIESFPEIFQRSERISLTVAYGPDYVLLRSNPDDFNGIVTAEIGSQVEMECICYSFLDLKYHWIHNGSLLNFSDAKMNLSSLAWEQMGRYRCTVENPVTQLIMYMDVRIQAPHEDLTCCPQRFLHLRIHGDVPHHADSAGWRLHLWSPDPCSDQPLLNQDKSGSMSVHPRPEDKTRRASR [A8MTB9],4.89 ± 0.18,4.46 ± 0.032,28.6 ± 0.05,27.4 ± 0.32,
MDRRSRAQQWRRARHNYNDLCPPIGRRAATALLWLSCSIALLRALATSNARAQQRAAAQQRRSFLNAHHRSGAQVFPESPESESDHEHEEADLELSLPECLEYEEEFDYETESETESEIESETDFETEPETAPTTEPETEPEDDRGPVVPKHSTFGQSLTQRLHALKLRSPDASPSRAPPSTQEPQSPREGEELKPEDKDPRDPEESKEPKEEKQRRRCKPKKPTRRDASPESPSKKGPIPIRRH,3.95 ± 0.71,5.43 ± 0.11,27.2 ± 2.3,25.8 ± 4.4,
MKQKMMARLLRTSFALLFLGLFGVLGAATISCRNEEGKAVDWFTFYKLPKRQNKESGETGLEYLYLDSTTRSWRKSEQLMNDTKSVLGRTLQQLYEAYASKSNNTAYLIYNDGVPKPVNYSRKYGHTKGLLLWNRVQGFWLIHSIPQFPPIPEEGYDYPPTGRRNGQSGICITFKYNQYEAIDSQLLVCNPNVYSCSIPATFHQELIHMPQLCTRASSSEIPGRLLTTLQSAQGQKFLHFAKSDSFLDDIFAAWMAQRLKTHLLTETWQRKRQELPSNCSLPYHVYNIKAIKLSRHSYFSSYQDHAKWCISQKGTKNRWTCIGDLNRSPHQAFRSGGFICTQNWQIYQAFQGLVLYYESCK [Q8WZ79],,,,,percentage of EdU-negative (hTERT-HMEC; [4]): 5.48 ± 0.48%; percentage of EdU-negative (hTERT-HMEC; [5]): 15.5 ± 1.6%; percentage of EdU-negative (MCF7; [4]): 28.9 ± 1.8%; percentage of EdU-negative (MCF7; [5]): 32.3 ± 0.53%
MAAATGPSFWLGNETLKVPLALFALNRQRLCERLRKNPAVQAGSIVVLQGGEETQRYCTDTGVLFRQESFFHWAFGVTEPGCYGVIDVDTGKSTLFVPRLPASHATWMGKIHSKEHFKEKYAVDDVQYVDEIASVLTSQKPSVLLTLRGVNTDSGSVCREASFDGISKFEVNNTILHPEIVECRVFKTDMELEVLRYTNKISSEAHREVMKAVKVGMKEYELESLFEHYCYSRGGMRHSSYTCICGSGENSAVLHYGHAGAPNDRTIQNGDMCLFDMGGEYYCFASDITCSFPANGKFTADQKAVYEAVLRSSRAVMGAMKPGVWWPDMHRLADRIHLEELAHMGILSGSVDAMVQAHLGAVFMPHGLGHFLGIDVHDVGGYPEGVERIDEPGLRSLRTARHLQPGMVLTVEPGIYFIDHLLDEALADPARASFLNREVLQRFRGFGGVRIEEDVVVTDSGIELLTCVPRTVEEIEACMAGCDKAFTPFSGPK,,,,,percentage of EdU-negative (hTERT-HMEC; [6]): 5.01 ± 0.5%; percentage of EdU-negative (hTERT-HMEC; [7]): 4.28 ± 0.51%; percentage of EdU-negative (MCF7; [6]): 26 ± 1%; percentage of EdU-negative (MCF7; [7]): 27.3 ± 1.4%
